We go through one molecule from US20070178448A1 (Scripps Research, published 2007).

In the experiment the target is T1, streptavidin (UniProt P22629 37-163, limits assumed).
T1 construct: also called streptavidin coated microtiter plates (Pierce); strepavidin
As to the kind of experiment: phage capture on streptavidin coated wells, elution with 10 µM biotin, titer of input and output phage. How it is done:
In a model phage selection experiment, wild-type phage and phage carrying the mutant SBP with p-azido-L-phenylalanine were exposed to streptavidin coated wells, followed by recovery of the bound phage. Titer of the recovered enriched phage following elution was used as a measure of the binding specificity of the page for the streptavidin.
Specifically, two wells from a streptavidin coated microtiter plate (Pierce) were blocked with 300 μL of 4% BSA in 1×PBS at 4° C. overnight. After washing, separate streptavidin coated wells were incubated with similar numbers of phage (each in 100 μL) of either M13KE-SBP prepared in TTS/RS 3 or M13KE wild type phage at room temperature for 2 hours and washed 10 times with 200 μL PBST. The bound phage was eluted from the plate solid support with 10 μM biotin 1×PBS, pH 7.4. The input and output phage were titered (see, FIG. 9).

Non-standard residues stand in square brackets, D forms with d. No end group written: not given here. Phe(4-Ac) = CC(=O)c1ccc(C[C@H](N)C(=O)O)cc1

T1 sequence (P22629 37-163 limits assumed): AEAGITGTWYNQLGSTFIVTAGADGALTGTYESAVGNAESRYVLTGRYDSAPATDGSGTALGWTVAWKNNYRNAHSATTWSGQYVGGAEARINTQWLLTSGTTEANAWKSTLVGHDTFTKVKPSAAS

B1: M13KE-SBP phage prepared in TTS/RS 3 in the presence of p-acetylphenylalanine 3 (streptavidin binding peptide AGXTLLAHPQ, X = p-acetyl-L-phenylalanine, as … (peptide)
chain: AG[Phe(4-Ac)]TLLAHPQ
modifications: not fully specified (C-terminus)
notes: also called M13KE-SBP phage prepared in TTS/p-acetylphenylalanine 3; M13KE-SBP prepared in TTS/RS 3; not shown: pIII minor coat protein of M13 filamentous phage (vector M13KE); peptide fused at its N-terminus after the signal peptid
Turning to B1, the “recovery rate, fold over that of M13KE wild-type phage” value was 9000 fold.
